Assay [1] addresses T1, HER2 (human, UniProt P04626). As to the kind of experiment: BLI, 30C, E. coli-expressed. For orientation: BLI is a label-free optical method that tracks binding on a fibre tip over time.
In assay [2] the target is T1, HER2. As to the kind of experiment: BLI, 30C, ExpiCHO-expressed.

B1: LH_S-C (antibody)
chain 1: EVQLVESGGGLVQPGGSLRLSVAASGFNIKDTYIHWVRQAPGKGLEWVARIYPTNGYTRYADSVKGRFTISADTSKNTAYLQMNSLRAEDTAVYYASRWGGDGFYCMDYWGQGTLVTVSS
chain 2: not shown
The term Kd denotes the equilibrium constant for the complex coming apart. Higher therefore signals a looser complex. On to B1, for which the equilibrium dissociation constant (Kd) with HER2 [1] came out at 1.5 nM; with HER2 [2], 0.28 nM.

(Values after patent US20260327336 (published 2026).)
